# In patent US8067674B2, “Desaturase genes, enzymes encoded thereby, and uses thereof” (Abbott Laboratories, priority 2002, dated 2011):
# B1: SDD17: omega-3 desaturase of 358 amino acid residues (SEQ ID NO: 26) encoded by sdd17 from Saprolegnia diclina (ATCC 56851) (protein, listed as Saprolegnia diclina)
# chain: MTEDKTKVEFPTLTELKHSIPNACFESNLGLSLYYTARAIFNASASAALLYAARSTPFIADNVLLHALVCATYIYVQGVIFWGFFTVGHDCGHSAFSRYHSVNFIIGCIMHSAILTPFESWRVTHRHHHKNTGNIDKDEIFYPHRSVKDLQDVRQWVYTLGGAWFVYLKVGYAPRTMSHFDPWDPLLLRRASAVIVSLGVWAAFFAAYAYLTYSLGFAVMGLYYYAPLFVFASFLVITTFLHHNDEATPWYGDSEWTYVKGNLSSVDRSYGAFVDNLSHHIGTHQVHHLFPIIPHYKLNEATKHFAAAYPHLVRRNDEPIITAFFKTAHLFVNYGAVPETAQIFTLKESAAAAKAKSD
# System: fatty acid substrates
# Test: Yeast expression of the omega-3 desaturase (SDD17, sdd17 in pYX242) with exogenous fatty acid substrates, FAME/GC analysis
# Assay type: cell-based, Saccharomyces cerevisiae (SC334)
# Conditions: for % Conversion: 24° C.
# From the text: To determine the substrate specificity and the class of reaction catalyzed by the SDD17-protein, sdd17 was heterologously expressed in a Saccharomyces cerevisiae (SC334). Because S. cerevisiae cannot synthesize fatty acids beyond OA (18:1n-9), it is an ideal system to use to determine enzyme activity on substrates longer than OA because no background enzyme activity will be detected. Suitable fatty acid substrates can be exogenously supplied to the host which are taken up by the cell and acted on by the expressed protein of the transformed sdd17 gene.
# Clone pRSP19, which contained the full-length omega-3 desaturase (sdd17) from S. diclina cloned into pYX242, was transformed into Saccharomyces cerevisiae (SC334) using the “Alkali-Cation Yeast Transformation”-brand kit (BIO 101, Vista, Calif.). Transformants were selected for leucine auxotrophy on media lacking leucine (DOB [-Leu]). To detect the specific desaturase activity of these clones, transformants were grown in the presence of 50 μM of each of LA (18:2n-6), GLA (18:3n-6),
# DGLA (20:3n-6), AA (20:4n-6), and adrenic acid (22:4n-6). Conversion of these exogenously supplied fatty acid substrates into a product having one additional unsaturation indicates the presence of a specific desaturase activity that is not found in the wild-type S. cerevisiae:
# The negative control strain was S. cerevisiae transformed with the pYX242 vector. The experimental cultures and the control cultures were grown simultaneously and analyzed.
# The cultures were vigorously agitated (250 rpm) and grown for 48 hours at 24° C. in the presence of 50 μM (final concentration) of the various substrates (see Table 3). The cells were spun down, washed once in distilled water, and the pellets resuspended in methanol; chloroform was added along with tritridecanoin (as an internal standard). These mixtures were incubated for at least an hour at room temperature, or at 4° C. overnight. The chloroform layer was extracted and filtered through a Whatman filter with 1 gm anhydrous sodium sulfate to remove particulate matter and residual water. The organic solvents were evaporated at 40° C. under a stream of nitrogen. The extracted lipids were then converted to fatty acid methyl esters (FAME) for gas chromatography analysis (GC) by adding 2 ml 0.5 N potassium hydroxide in methanol to a closed tube. The samples were heated to 95° C.-100° C. for 30 minutes and cooled to room temperature. Approximately 2 ml 14% borontrifluoride in methanol was added and the heating repeated. After the extracted lipid mixture cooled, 2 ml of water and 1 ml of hexane were added to extract the FAME for analysis by GC. The percent conversion was calculated using the formula: […]
# (i.e. 15° C.). Here, 50 μM of exogenous substrate was added to the transformants and the cultures were grown for 48 hours at 15° C. Fatty acid analysis was carried out as described above. The overall uptake of substrate by S. cerevisiae at 15° C. was lower than that seen at 24° C. (compare Table 3 & Table 4). However the percent conversion of substrate to product by the enzyme increased at 15° C. Since the presence of lower concentration of exogenous fatty acid substrate seemed to improve the activity of the enzyme, it is possible that fatty acid substrates at high concentrations may exert a feed-back inhibition on this enzyme. […]
molecule,measurement,setting,value
B1,percent conversion of substrate to product at 15° C. compared with 24° C.,"15° C. vs 24° C., 50 μM substrate, 48 hours",increased
same,% Conversion,"20:3 n-6 (DGLA) to 20:4 n-3 (ETA) (Delta 17), 48 hours, 50 μM substrate",5%
same,% Conversion,"20:4 n-6 (AA) to 20:5 n-3 (EPA) (Delta 17), 48 hours, 50 μM substrate",13.8%
same,% Conversion,"22:4 n-6 (adrenic acid) to 22:5 n-3 (DPA) (Delta 19), 48 hours, 50 μM substrate",4%
same,desaturation of C18 omega-6 fatty acyl substrates to their corresponding omega-3 fatty acids,under the conditions tested,did not desaturate
